From patent publication US20220089745A1 (Biogen, published 2022)

B1: BIIB-4-174 (Fab, V domains shown)
VH: QVQLVQSGAEVKKPGSSVKVSCKASGGTFSSYAISWVRQAPGQGLEWMGGIIPIFGTANYAQKFQGRVTITADESTSTAYMELSSLRSEDTAVYYCARGPPSAYGDYVWDIWGQGTMVTVSS
VL: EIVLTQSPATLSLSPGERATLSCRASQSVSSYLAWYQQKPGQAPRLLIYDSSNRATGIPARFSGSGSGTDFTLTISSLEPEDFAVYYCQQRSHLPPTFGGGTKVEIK
notes: Tested as Fab made from yeast-expressed, protein A-purified antibody; Only VH and VL are tied to the clone
B2: BIIB-4-147 (Fab, V domains shown)
VH: QVQLVQSGAEVKKPGASVKVSCKASGYTFTSYGISWVRQAPGQGLEWMGWISAYNGNTNYAQKLQGRVTMTTDTSTSTAYMELRSLRSDDTAVYYCARDLEYYDSSGYAYGYFDLWGRGTLVTVSS
VL: not shown
notes: as for B1
B3: BIIB-4-311 (Fab, V domains shown)
VH: QVQLVQSGAEVKKPGASVKVSCKASGYTFTSYYMHWVRQAPGQGLEWMGVINPSGGSTSYAQKFQGRVTMTRDTSTSTVYMELSSLRSEDTAVYYCARLMSGSSGSWGQGTLVTVSS
VL: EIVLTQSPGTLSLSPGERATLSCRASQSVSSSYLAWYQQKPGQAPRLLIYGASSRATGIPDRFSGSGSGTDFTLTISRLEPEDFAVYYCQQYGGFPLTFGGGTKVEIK
notes: as for B1
B4: BIIB-4-224 (Fab, V domains shown)
VH: QLQLQESGPGLVKPSETLSLTCTVSGGSISSSSYYWGWIRQPPGKGLEWIGSIYYSGSTYYNPSLKSRVTISVDTSKNQFSLKLSSVTAADTAVYYCARDFYSSVYGMDVWGQGTTVTVSS
VL: DIQLTQSPSSLSASVGDRVTITCRASQSISSFLNWYQQKPGKAPKLLIYAASSLQSGVPSRFSGSGSGTDFTLTISSLQPEDFATYYCQQSYVHPLTFGGGTKVEIK
notes: as for B1
B5: BIIB-4-318 (Fab, V domains shown)
VH: QVQLQESGPGLVKPSETLSLTCAVSGYSISSGYYWGWIRQPPGKGLEWIGSIYHSGSTNYNPSLKSRVTISVDTSKNQFSLKLSSVTAADTAVYYCARSPRWRSTYANWFNPWGQGTLVTVSS
VL: DIQLTQSPSSVSASVGDRVTITCRASQGISSWLAWYQQKPGKAPKLLIYGASSLQSGVPSRFSGSGSGTDFTLTISSLQPEDFATYYCQQAAPFPLTFGGGTKVEIK
notes: as for B1
B6: BIIB-4-319 (Fab, V domains shown)
VH: QVQLQESGPGLVKPSETLSLTCAVSGYSISSGYYWAWIRQPPGKGLEWIGSIYHSGSTYYNPSLKSRVTISVDTSKNQFSLKLSSVTAADTAVYYCAREHSSSGQWNVWGQGTMVTVSS
VL: EIVLTQSPATLSLSPGERATLSCRASQSVSSYLAWYQQKPGQAPRLLIYDASNRATGIPARFSGSGSGTDFTLTISSLEPEDFAVYYCQQRSFYFTFGGGTKVEIK
notes: Tested as Fab made from yeast-expressed, protein A-purified antibody; Only VH and VL are tied to the clone; also called BBB-4-319
B7: BIIB-4-156 (Fab, V domains shown)
VH: QVQLVQSGAEVKKPGSSVKVSCKASGGTFSSYAISWVRQAPGQGLEWMGGIIPIFGTANYAQKFQGRVTITADESTSTAYMELSSLRSEDTAVYYCARDTGYYGASLYFDYWGQGTLVTVSS
VL: EIVLTQSPATLSLSPGERATLSCRASQSVSSYLAWYQQKPGQAPRLLIYDASNRATGIPARFSGSGSGTDFTLTISSLEPEDFAVYYCQQRSALPRTFGGGTKVEIK
notes: as for B1
B8: BIIB-4-209 (Fab, V domains shown)
VH: QVQLVQSGAEVKKPGASVKVSCKASGYTFTSYGISWVRQAPGQGLEWMGWISAYNGNTNYAQKLQGRVTMTTDTSTSTAYMELRSLRSDDTAVYYCARGRPYDHYFDYWGQGTLVTVSS
VL: EIVLTQSPATLSLSPGERATLSCRASQSVSSYLAWYQQKPGQAPRLLIYDASNRATGIPARFSGSGSGTDFTLTISSLEPEDFAVYYCQQAYNYPFTFGGGTKVEIK
notes: as for B1
B9: BIIB-4-204 (Fab, V domains shown)
VH: QVQLVQSGAEVKKPGASVKVSCKASGYTFTSYSMHWVRQAPGQGLEWMGIINPSGGSTSYAQKFQGRVTMTRDTSTSTVYMELSSLRSEDTAVYYCARSYDIGYFDLWGRGTLVTVSS
VL: EIVLTQSPATLSLSPGERATLSCRASQSVSSYLAWYQQKPGQAPRLLIYDASKRATGIPARFSGSGSGTDFTLTISSLEPEDFAVYYCQQDSFLPFTFGGGTKVEIK
notes: as for B1
B10: BIIB-4-317 (Fab, V domains shown)
VH: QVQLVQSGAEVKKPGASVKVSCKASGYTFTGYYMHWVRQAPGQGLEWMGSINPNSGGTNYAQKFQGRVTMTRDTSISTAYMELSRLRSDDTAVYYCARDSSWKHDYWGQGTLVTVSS
VL: EIVLTQSPATLSLSPGERATLSCRASQSVSSYLAWFQQKPGQAPRLLIYDASNRATGIPARFSGSGSGTDFTLTISSLEPEDFAVYYCQQYSFYPLTFGGGTKVEIK
notes: as for B1
B11: BIIB-4-309 (Fab, V domains shown)
VH: QVQLVQSGAEVKKPGASVKVSCKASGYTFTSYGISWVRQAPGQGLEWMGWISAYNGNTNYAQKLQGRVTMTTDTSTSTAYMELRSLRSDDTAVYYCARDGLGSSPWSAFDIWGQGTMVTVSS
VL: not shown
notes: Tested as Fab made from yeast-expressed, protein A-purified antibody; Only VH and VL are tied to the clone; also called Fab BIIB_4_309
B12: BIIB-4-175 (Fab, V domains shown)
VH: EVQLVESGGGLVQPGGSLRLSCAASGFTFSDHHMDWVRQAPGKGLEWVGRTRNKANSYTTEYAASVKGRFTISRDDSKNSLYLQMNSLKTEDTAVYYCARGPPYYADLGMGVWGQGTTVTVSS
VL: EIVMTQSPATLSVSPGERATLSCRASQSVSSNLAWYQQKPGQAPRLLIYGASTRATGIPARFSGSGSGTEFTLTISSLQSEDFAVYYCQQFNLYPYTFGGGTKVEIK
notes: as for B1

Legend:
[1] = biological target: T1, wild type (WT) GPIIb/IIIa ectodomain (heterodimer of SEQ ID NOs: 1 and 3) (human, UniProt P08514 32-993; P05106 27-716); assay: apparent monovalent affinity for GP2b3a (SEQ ID: 1 and 3); BLI or SPR, the method of each row is not given
T1 construct: Recombinant purified ectodomain; also called GP2b3a; integrin αIIbβ3

[2] = biological target: T2, integrin alpha v beta III ectodomain (SEQ ID NOs: 245 and 3) (human, UniProt P06756 31-992; P05106 27-716); assay: BLI, yeast purified Fab on sensor-associated AvB3 (sheet head: SEQ ID NOs: 199, 3; legend: SEQ ID NO 245 and 3); Fab concentration not given
T2 construct: Purified recombinant ectodomain; also called alpha v beta 3

[3] = biological target: T2, integrin alpha v beta III ectodomain …; assay: as above; remark: listed apart in the source
[4] = biological target: T2, integrin alpha v beta III ectodomain …; assay: BLI, monovalent format, yeast purified Fab; drawn table of apparent integrin binding specificity
[5] = biological target: T2, integrin alpha v beta III ectodomain …; assay: BLI, yeast purified Fab on sensor-associated AvB3 (sheet head: SEQ ID NOs: 199, 3; legend: SEQ ID NO 245 and 3)
[6] = biological target: T3, GPIIb/IIIa on gel-purified human platelets (activated or resting) (human, UniProt P08514 32-1039; P05106 27-788); assay: flow cytometry, Fab on gel-purified human platelets; steeper curve with filled circles, which the legend box labels resting platelets
T3 construct: whole, on cells; Native receptor on platelets; also called integrin αIIbβ3 on platelets; GPIIb/IIIa on platelets

[7] = biological target: T2, integrin alpha v beta III ectodomain …; assay: BLI, yeast purified Fab on sensor-associated AvB3 (sheet head: SEQ ID NOs: 199, 3; legend: SEQ ID NO 245 and 3); remark: listed apart in the source
[8] = biological target: T2, integrin alpha v beta III ectodomain …; assay: BLI, monovalent format, yeast purified Fab; drawn table of apparent integrin binding specificity (legend of FIGS. 20A-D: alpha V beta III is SEQ ID NO 245 and 3)

| Binder | Kd [1] [nM] | binding result [4] | other results |
| --- | --- | --- | --- |
| B1 | 11 |  | binding result [2]: no binding |
| B2 | 5 |  | binding result [3]: no binding |
| B3 | 64 | no binding |  |
| B4 | 200 | no binding |  |
| B5 | 3 | no binding |  |
| B6 |  |  | binding result [5]: binds |
| B7 | 11 |  | EC50 (read off the curve) [6]: ~20 nM; binding result [7]: binds |
| B8 | 98 |  | binding result [8]: binds |
| B9 | 170 |  | binding result [8]: binds |
| B10 |  |  | binding result [8]: binds |
| B11 | 25 | no binding |  |
| B12 | 15 | no binding |  |
